Measured values: publication PMC9482650, “Quantitative fragmentomics allow affinity mapping of interactomes” (Nature Communications, 2022)

T1: GRIP1_7, Q9Y3R0
T1 sequence (Q9Y3R0 999-1096, limits assumed, looked up): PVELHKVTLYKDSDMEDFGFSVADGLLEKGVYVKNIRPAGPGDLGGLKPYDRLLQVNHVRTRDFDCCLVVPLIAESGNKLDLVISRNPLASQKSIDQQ

T2: LNX2_2, Q8N448
T2 sequence (Q8N448 334-432, limits assumed, looked up): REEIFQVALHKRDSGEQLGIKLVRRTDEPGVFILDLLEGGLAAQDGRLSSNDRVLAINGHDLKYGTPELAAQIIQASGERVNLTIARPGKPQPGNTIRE

T3: PCLO, Q9Y6V0
T3 sequence (Q9Y6V0 4491-4600, limits assumed, looked up): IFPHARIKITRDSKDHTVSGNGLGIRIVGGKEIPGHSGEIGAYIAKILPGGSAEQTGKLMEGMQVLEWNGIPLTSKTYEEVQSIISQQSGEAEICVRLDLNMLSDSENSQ

T4: DLG3_1, Q92796
T4 sequence (Q92796 125-227, limits assumed, looked up): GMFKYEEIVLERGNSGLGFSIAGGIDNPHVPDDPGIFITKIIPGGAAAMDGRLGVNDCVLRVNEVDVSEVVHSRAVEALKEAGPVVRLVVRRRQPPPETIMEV

T5: LRRC7, Q96NW7
T5 sequence (Q96NW7 1440-1537, limits assumed, looked up): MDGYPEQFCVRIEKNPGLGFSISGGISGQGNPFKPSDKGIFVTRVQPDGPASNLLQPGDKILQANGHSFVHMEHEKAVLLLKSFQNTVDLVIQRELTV

T6: SIPA1L2, Q9P2F8
T6 sequence (Q9P2F8 945-1036, limits assumed, looked up): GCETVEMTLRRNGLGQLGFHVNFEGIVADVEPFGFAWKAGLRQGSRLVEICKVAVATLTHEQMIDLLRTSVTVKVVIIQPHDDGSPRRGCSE

T7: MPDZ_10, O75970
T7 sequence (O75970 1624-1722, limits assumed, looked up): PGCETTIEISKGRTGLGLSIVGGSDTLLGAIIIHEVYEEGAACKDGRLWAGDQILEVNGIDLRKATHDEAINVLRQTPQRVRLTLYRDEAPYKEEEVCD

T8: GRIP1_4, Q9Y3R0
T8 sequence (Q9Y3R0 467-571, limits assumed, looked up): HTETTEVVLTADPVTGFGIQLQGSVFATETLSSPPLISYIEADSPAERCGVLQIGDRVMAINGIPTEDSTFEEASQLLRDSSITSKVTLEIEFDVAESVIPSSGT

T9: DFNB31_3, Q9P202
T9 sequence (Q9P202 811-907, limits assumed, looked up): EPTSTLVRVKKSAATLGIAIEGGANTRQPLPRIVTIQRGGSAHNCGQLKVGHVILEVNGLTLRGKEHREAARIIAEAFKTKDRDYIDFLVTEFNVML

T10: PARD3B_1, Q8TEW8
T10 sequence (Q8TEW8 196-299, limits assumed, looked up): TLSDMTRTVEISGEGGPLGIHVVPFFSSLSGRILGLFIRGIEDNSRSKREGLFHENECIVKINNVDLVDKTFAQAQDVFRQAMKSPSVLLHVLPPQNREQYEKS

T11: TIAM2, Q8IVF5
T11 sequence (Q8IVF5 885-986, limits assumed, looked up): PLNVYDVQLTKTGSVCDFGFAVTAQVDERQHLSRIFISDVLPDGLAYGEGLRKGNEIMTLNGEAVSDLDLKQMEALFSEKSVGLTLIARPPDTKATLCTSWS

B1: SEMA4C, Q9C0C4 (peptide)
chain: PDSNPEESSV
B2: GAGE12J, A6NER3 (peptide)
chain: PEEGKKQSQC
B3: KCNT1, Q5JUK3 (peptide)
chain: NPETRDETQL
B4: ADGRG1, Q9Y653 (peptide)
chain: SSGSTSSSRI
B5: DUSP10, Q9Y6W6 (peptide)
chain: PKLMGVETVV

The binders below were run against GRID2IP_1, A4D2P6 (assay: holdup assay). Details: plain residues with an end cap or a label only (N-terminal biotin on a linker: ado-ado).
GRID2IP_1, A4D2P6, sequence (A4D2P6 1-87): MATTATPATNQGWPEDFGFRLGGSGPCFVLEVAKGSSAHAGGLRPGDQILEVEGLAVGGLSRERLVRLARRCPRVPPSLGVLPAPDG
Set-up: key: below the threshold = too weak to quantify, mostly under pKd 3.1 to 4

pKd	Binder
below the threshold	B1
below the threshold	B2
below the threshold	B3
below the threshold	B4
below the threshold	B5

The binders below were run against T1, GRIP1_7, Q9Y3R0 (assay: holdup assay). Details: plain residues with an end cap or a label only (N-terminal biotin on a linker: ado-ado).
Set-up: key: below the threshold = too weak to quantify, mostly under pKd 3.1 to 4

pKd	Binder
below the threshold	B1
below the threshold	B2
below the threshold	B3
below the threshold	B4
below the threshold	B5

Each binder was assayed against MAGI2_6, Q86UL8 (assay: holdup assay). Details: plain residues with an end cap or a label only (N-terminal biotin on a linker: ado-ado).
MAGI2_6, Q86UL8, sequence (Q86UL8 1141-1229): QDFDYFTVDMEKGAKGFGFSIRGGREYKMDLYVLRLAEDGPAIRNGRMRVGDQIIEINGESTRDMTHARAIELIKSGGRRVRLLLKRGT
Set-up: key: below the threshold = too weak to quantify, mostly under pKd 3.1 to 4

pKd	Binder
4.27	B1
below the threshold	B2
3.51	B3
below the threshold	B4
3.99	B5

What follows are binders tested against TJP1_2, Q07157 (assay: holdup assay). Details: plain residues with an end cap or a label only (N-terminal biotin on a linker: ado-ado).
TJP1_2, Q07157, sequence (Q07157 181-274): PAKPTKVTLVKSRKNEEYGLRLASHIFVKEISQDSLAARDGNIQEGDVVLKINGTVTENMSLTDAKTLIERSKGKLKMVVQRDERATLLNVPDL
Set-up: key: below the threshold = too weak to quantify, mostly under pKd 3.1 to 4

pKd	Binder
below the threshold	B1
below the threshold	B2
below the threshold	B3
below the threshold	B4
3.67	B5

What follows are binders tested against T2, LNX2_2, Q8N448 (assay: holdup assay). Details: plain residues with an end cap or a label only (N-terminal biotin on a linker: ado-ado).
Set-up: key: below the threshold = too weak to quantify, mostly under pKd 3.1 to 4

pKd	Binder
below the threshold	B1
below the threshold	B2
below the threshold	B3
below the threshold	B4
5.21	B5

Each binder was assayed against PDLIM1, O00151 (assay: holdup assay). Details: plain residues with an end cap or a label only (N-terminal biotin on a linker: ado-ado).
PDLIM1, O00151, sequence (O00151 1-87): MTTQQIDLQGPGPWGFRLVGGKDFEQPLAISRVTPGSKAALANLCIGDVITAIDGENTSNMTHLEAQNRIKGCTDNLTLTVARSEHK
Set-up: key: below the threshold = too weak to quantify, mostly under pKd 3.1 to 4

pKd	Binder
3.54	B1
below the threshold	B2
below the threshold	B3
below the threshold	B4
below the threshold	B5

The binders below were run against HTRA1, Q92743 (assay: holdup assay). Details: plain residues with an end cap or a label only (N-terminal biotin on a linker: ado-ado).
HTRA1, Q92743, sequence (Q92743 360-477): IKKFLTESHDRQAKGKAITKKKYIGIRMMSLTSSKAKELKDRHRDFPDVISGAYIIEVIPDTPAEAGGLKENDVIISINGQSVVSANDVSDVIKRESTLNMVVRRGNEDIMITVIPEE
Set-up: key: below the threshold = too weak to quantify, mostly under pKd 3.1 to 4

pKd	Binder
3.85	B1
below the threshold	B2
below the threshold	B3
below the threshold	B4
4.6	B5

Each binder was assayed against T3, PCLO, Q9Y6V0 (assay: holdup assay). Details: plain residues with an end cap or a label only (N-terminal biotin on a linker: ado-ado).
Set-up: key: below the threshold = too weak to quantify, mostly under pKd 3.1 to 4

pKd	Binder
below the threshold	B1
below the threshold	B2
below the threshold	B3
below the threshold	B4
below the threshold	B5

Each binder was assayed against Inadl_1, Q8NI35 (assay: holdup assay). Details: plain residues with an end cap or a label only (N-terminal biotin on a linker: ado-ado).
Inadl_1, Q8NI35, sequence (Q8NI35 113-229): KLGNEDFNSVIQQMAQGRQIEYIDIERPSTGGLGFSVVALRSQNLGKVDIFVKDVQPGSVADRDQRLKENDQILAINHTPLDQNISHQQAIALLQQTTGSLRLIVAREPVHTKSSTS
Set-up: key: below the threshold = too weak to quantify, mostly under pKd 3.1 to 4

pKd	Binder
below the threshold	B1
below the threshold	B2
below the threshold	B3
below the threshold	B4
below the threshold	B5

What follows are binders tested against DLG1_1, Q12959 (assay: holdup assay). Details: plain residues with an end cap or a label only (N-terminal biotin on a linker: ado-ado).
Set-up: key: below the threshold = too weak to quantify, mostly under pKd 3.1 to 4

pKd	Binder
3.74	B1
below the threshold	B2
below the threshold	B3
below the threshold	B4
5.06	B5

What follows are binders tested against T4, DLG3_1, Q92796 (assay: holdup assay). Details: plain residues with an end cap or a label only (N-terminal biotin on a linker: ado-ado).
Set-up: key: below the threshold = too weak to quantify, mostly under pKd 3.1 to 4

pKd	Binder
below the threshold	B1
below the threshold	B2
below the threshold	B3
3.54	B4
4.63	B5

The binders below were run against T5, LRRC7, Q96NW7 (assay: holdup assay). Details: plain residues with an end cap or a label only (N-terminal biotin on a linker: ado-ado).
Set-up: key: below the threshold = too weak to quantify, mostly under pKd 3.1 to 4

pKd	Binder
below the threshold	B1
below the threshold	B2
below the threshold	B3
below the threshold	B4
3.83	B5

The binders below were run against NHERF4_2, Q86UT5 (assay: holdup assay). Details: plain residues with an end cap or a label only (N-terminal biotin on a linker: ado-ado).
NHERF4_2, Q86UT5, sequence (Q86UT5 220-308): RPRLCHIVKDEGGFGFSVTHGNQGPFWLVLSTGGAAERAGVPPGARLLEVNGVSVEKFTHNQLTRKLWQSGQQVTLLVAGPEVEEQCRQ
Set-up: key: below the threshold = too weak to quantify, mostly under pKd 3.1 to 4

pKd	Binder
below the threshold	B1
below the threshold	B2
below the threshold	B3
below the threshold	B4
below the threshold	B5

Each binder was assayed against T6, SIPA1L2, Q9P2F8 (assay: holdup assay). Details: plain residues with an end cap or a label only (N-terminal biotin on a linker: ado-ado).
Set-up: key: below the threshold = too weak to quantify, mostly under pKd 3.1 to 4

pKd	Binder
below the threshold	B1
below the threshold	B2
below the threshold	B3
below the threshold	B4
below the threshold	B5

Each binder was assayed against AHNAK1, Q09666 (assay: holdup assay). Details: plain residues with an end cap or a label only (N-terminal biotin on a linker: ado-ado).
AHNAK1, Q09666, sequence (Q09666 4-100): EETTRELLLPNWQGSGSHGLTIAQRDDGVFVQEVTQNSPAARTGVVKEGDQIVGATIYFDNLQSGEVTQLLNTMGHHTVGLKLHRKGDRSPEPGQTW
Set-up: key: below the threshold = too weak to quantify, mostly under pKd 3.1 to 4

pKd	Binder
below the threshold	B1
below the threshold	B2
below the threshold	B3
below the threshold	B4
below the threshold	B5

The binders below were run against T7, MPDZ_10, O75970 (assay: holdup assay). Details: plain residues with an end cap or a label only (N-terminal biotin on a linker: ado-ado).
Set-up: key: below the threshold = too weak to quantify, mostly under pKd 3.1 to 4

pKd	Binder
below the threshold	B1
below the threshold	B2
below the threshold	B3
below the threshold	B4
below the threshold	B5

Each binder was assayed against SCRIB_2, Q14160 (assay: holdup assay). Details: plain residues with an end cap or a label only (N-terminal biotin on a linker: ado-ado).
SCRIB_2, Q14160, sequence (Q14160 857-960): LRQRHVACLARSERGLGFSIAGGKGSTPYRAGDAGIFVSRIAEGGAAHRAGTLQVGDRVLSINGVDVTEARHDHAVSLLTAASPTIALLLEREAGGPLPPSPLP
Set-up: key: below the threshold = too weak to quantify, mostly under pKd 3.1 to 4

pKd	Binder
4.43	B1
below the threshold	B2
4.05	B3
below the threshold	B4
3.98	B5

What follows are binders tested against LAP2, Q96RT1 (assay: holdup assay). Details: plain residues with an end cap or a label only (N-terminal biotin on a linker: ado-ado).
LAP2, Q96RT1, sequence (Q96RT1 other isoform, or with tags, fused parts or gaps): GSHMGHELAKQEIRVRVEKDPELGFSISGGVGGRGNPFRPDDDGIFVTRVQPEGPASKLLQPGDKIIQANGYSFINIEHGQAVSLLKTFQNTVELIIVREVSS
Set-up: key: below the threshold = too weak to quantify, mostly under pKd 3.1 to 4

pKd	Binder
4.46	B1
below the threshold	B2
below the threshold	B3
below the threshold	B4
4.03	B5

The binders below were run against MAGI2_3, Q86UL8 (assay: holdup assay). Details: plain residues with an end cap or a label only (N-terminal biotin on a linker: ado-ado).
MAGI2_3, Q86UL8, sequence (Q86UL8 600-682): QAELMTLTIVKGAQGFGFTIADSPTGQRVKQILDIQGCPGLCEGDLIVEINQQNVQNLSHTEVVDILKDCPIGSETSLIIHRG
Set-up: key: below the threshold = too weak to quantify, mostly under pKd 3.1 to 4

pKd	Binder
below the threshold	B1
3.58	B2
3.52	B3
below the threshold	B4
4.17	B5

What follows are binders tested against SCRIB_3, Q14160 (assay: holdup assay). Details: plain residues with an end cap or a label only (N-terminal biotin on a linker: ado-ado).
SCRIB_3, Q14160, sequence (Q14160 999-1103): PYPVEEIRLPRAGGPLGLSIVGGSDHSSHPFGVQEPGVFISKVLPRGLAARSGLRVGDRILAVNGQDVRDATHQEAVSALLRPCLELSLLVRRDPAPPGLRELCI
Set-up: key: below the threshold = too weak to quantify, mostly under pKd 3.1 to 4

pKd	Binder
4.45	B1
below the threshold	B2
4.84	B3
below the threshold	B4
4.44	B5

What follows are binders tested against T8, GRIP1_4, Q9Y3R0 (assay: holdup assay). Details: plain residues with an end cap or a label only (N-terminal biotin on a linker: ado-ado).
Set-up: key: below the threshold = too weak to quantify, mostly under pKd 3.1 to 4

pKd	Binder
below the threshold	B1
below the threshold	B2
below the threshold	B3
below the threshold	B4
below the threshold	B5

The binders below were run against NOS1, P29475 (assay: holdup assay). Details: plain residues with an end cap or a label only (N-terminal biotin on a linker: ado-ado).
NOS1, P29475, sequence (P29475 9-101): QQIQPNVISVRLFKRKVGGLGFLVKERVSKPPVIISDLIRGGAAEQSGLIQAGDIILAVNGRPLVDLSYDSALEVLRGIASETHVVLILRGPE
Set-up: key: below the threshold = too weak to quantify, mostly under pKd 3.1 to 4

pKd	Binder
3.71	B1
below the threshold	B2
3.52	B3
below the threshold	B4
4.08	B5

What follows are binders tested against T9, DFNB31_3, Q9P202 (assay: holdup assay). Details: plain residues with an end cap or a label only (N-terminal biotin on a linker: ado-ado).
Set-up: key: below the threshold = too weak to quantify, mostly under pKd 3.1 to 4

pKd	Binder
below the threshold	B1
4	B2
4.01	B3
3.96	B4
below the threshold	B5

Each binder was assayed against T10, PARD3B_1, Q8TEW8 (assay: holdup assay). Details: plain residues with an end cap or a label only (N-terminal biotin on a linker: ado-ado).
Set-up: key: below the threshold = too weak to quantify, mostly under pKd 3.1 to 4

pKd	Binder
below the threshold	B1
below the threshold	B2
3.92	B3
3.93	B4
below the threshold	B5

The binders below were run against DLG2_2, Q15700 (assay: holdup assay). Details: plain residues with an end cap or a label only (N-terminal biotin on a linker: ado-ado).
DLG2_2, Q15700, sequence (Q15700 189-283): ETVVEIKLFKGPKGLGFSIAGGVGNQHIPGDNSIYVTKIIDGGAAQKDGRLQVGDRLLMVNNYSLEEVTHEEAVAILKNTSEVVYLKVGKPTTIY
Set-up: key: below the threshold = too weak to quantify, mostly under pKd 3.1 to 4

pKd	Binder
3.85	B1
below the threshold	B2
below the threshold	B3
3.49	B4
5.36	B5

What follows are binders tested against T11, TIAM2, Q8IVF5 (assay: holdup assay). Details: plain residues with an end cap or a label only (N-terminal biotin on a linker: ado-ado).
Set-up: key: below the threshold = too weak to quantify, mostly under pKd 3.1 to 4

pKd	Binder
below the threshold	B1
3.87	B2
below the threshold	B3
3.82	B4
below the threshold	B5

Each binder was assayed against DLG4_2, P78352 (assay: holdup assay). Details: plain residues with an end cap or a label only (N-terminal biotin on a linker: ado-ado).
DLG4_2, P78352, sequence (P78352 155-259): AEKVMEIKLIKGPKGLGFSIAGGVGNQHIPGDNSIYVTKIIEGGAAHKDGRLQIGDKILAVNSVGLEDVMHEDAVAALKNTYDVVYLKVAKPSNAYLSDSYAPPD
Set-up: key: below the threshold = too weak to quantify, mostly under pKd 3.1 to 4

pKd	Binder
4.22	B1
3.59	B2
3.59	B3
3.6	B4
5.47	B5
